Results: the DeepSol protein solubility set

Experiment: soluble on expression in E. coli; label from the status in PepcDB or PDB records

Sequence | soluble on expression in E. coli
MGSDKIHHHHHHMSVLQELTKKKYSSLKTMFDDKYCPTFVYSILDQTIPGAVYADDQTFPKSFFIGTESGIYFIAGDQGNRDFHDFIAGYYEEQVKSSKRFTLFSSSDTWDSVLKPILKDDLNQMRRAAFSYQPKSFKKTLQLPKGLVLKRIDEDIISHSTAFNSAYYEEYWNSVSQFASKGFGFAVLHGNHVVSECTSIFLGHNRAEMDIYTLEEYRGLGLAYCVANRFIAFCMENGIVPSWDCDICNNSSIALAAKLGFKTVTEYTIYYSG | not soluble
GPGGALPTCPACHKITPRTEAPVSSVSNSLENALHTSAHSTEESLPKRPLGKHSKVSVEKIDLKGLSHTKNDRNVECSFEVLWSDSSITSVTKSSSEVTEFISKLCQLYPEENLEKLIPCLAGPDAFYVERNHVDLDSGLRYLASLPSHVLKNDHVRRFLSTSSPPQQLQSPSPGNPSLSKVGTVMGVSGRPVCGVAGIPSSQSGAQHHGQHPAGSAAPLPHCSHAGSAGSALAYRTQMDTSPAILMPSSLQTPQTQEQNGILDWLRKLRLHKYYPVFKQLSMEKFLSLTEEDLNKFESLTMGAKKKLKTQLELEKEKSERRCLNPSAPPLVTSSGVARVPPTSHVGPVQSGRGSHAAELRVEVEQPHHQLPREGSSSEYSSSSSSPMGVQAREESSDSAEENDRRVEIHLESSDKEKPVMLLNHFTSSSARPTAQVLPVQNEASSNPSGHHPLPPQMLSAASHITPIRMLNSVHKPERGSADMKLLSSSVHSLLSLEERNKGSGPRSSMKVDKSFGSAMMDVLPASAPHQPVQVLSGLSESSSMSPTVSFGPRTKVVHASTLDRVLKTAQQPALVVETSTAATGTPSTVLHAARPPIKLLLSSSVPADSAISGQTSCPNNVQISVPPAIINPRTALYTANTKVAFSAMSSMPVGPLQGGFCANSNTASPSSHPSTSFANMATLPSCPAPSSSPALSSVPESSFYSSSGGGGSTGNIPASNPNHHHHHHHQQPPAPPQPAPPPPGCIVCTSCGCSGSCGSSGLTVSYANYFQHPFSGPSVFTFPFLPFSPMCSSGYVSAQQYGGGSTFPVVHAPYSSSGTPDPVLSGQSTFAVPPMQNFMAGTAGVYQTQGLVGSSNGSSHKKSGNLSCYNCGATGHRAQDCKQPSMDFNRPGTFRLKYAPPAESLDSTD | soluble
MGSDKIHHHHHHMSDPIPAAPTDNGVPVSLRSSRGRGWHGFGASLLEIRAGTYRIPAAEHHRIGVHIGSPVRADCVCDGARVSRIQAHGDVDVIPAGLPGEWTDSADCRILHIALSDTFVRRTFDQLELKPSQAQIRRRLQVRDPRLQHIAWAMAAELEAEDASDPLYAESLCTALVARLADSQPAFREHRRTLAPKAAARVIDYVEANLERRMTLAELAALVSISVPHFKVLFRETLGMPVHQYVVRRRVERAKALLLEGRLGISQIALEAGFAHQSHMAHWMNRVLGATPTEIARSGARGGLRLAYDGEDR | not soluble
MSEQNTAKTLPDRNEIEESSTWRLEDIFQTDTEWEKEFQAIKELLPKLTEFKGKLGDSANNLLEALQYEDEISMRLGKLYTYAHMRYDQDTTNSVYQALNDRATNLYSQVSSSTAYIVPEILSISEDTLQTFLKENRDLSVYEHALEEITRQRPHVLSEAEEALLAEASEVMSTSSNTFGMLNNADLKFPSIKGEDGEEVEITHGRYIQFLESDDRRVREDAFKAVYETYGKYKNTFASTLSGAVKRNNFNARVRKYDSARQAALSNNNIPEAVYDQLIESVNDNLHLLHRYIDIRKRALGLDELHMYDLYTPLVPEVKMNVKYEEAQDMLLKSLHVLGDEYVDILKEAYENRWVDVYENKGKRSGAYSSGAYGTNPYILMNWHDNVNNLFTLAHEFGHSVHSYYTRKTQPHVYGDYSIFVAEVASTCNEALLNDYLLKTTEDKKERLYLLNHYLEGFRGTVFRQTMFAEFEHIIHKKVQEGHAVTPDMLTEIYYDLNKKYFGDALVIDEEIGLEWSRIPHFYYNYYVYQYATGFSAATALSKQILEEGQPAVERYINEFLKAGSSDYPIEVLKKAGVDMASPEPVKEALQVFEEKLNELEALLFEEK | not soluble
PLGSDHWGKGDMSDEDDENEFFDAPEIITMPENLGHKRTGSHHHHHH | soluble
